Measured values taken from patent publication US20120316071A1.
Each block holds one substance with its values, some of them ahead of it.

What was measured:
[1] = biological target: rHuman Erythropoietin R/Fc Chimera, CF (human) (UniProt P19235); test: ECL multispot (MSD) assay, antigen spotted on the plate, Fab in solution; blank spot of the same well 284; further: test concentration or dose not given here
[2] = biological target: rHuman CD44/Fc Chimera, CF (R&D Systems Cat#3660-CD) (human) (UniProt P16070); test: MSD Multispot ECL, antigen spotted on plate, Fab in solution; blank spot of the row 300
[3] = biological target: rHuman ErbB2/Fc Chimera, CF (R&D Systems Cat#1129-ER) (human) (UniProt P04626); test: as above
[4] = biological target: rHuman IGF-1 sR, (IGF-1 sR), CF (R&D Systems Cat#391-GR) (human) (UniProt P08069); test: as above
[5] = biological target: rHuman ErbB2/Fc Chimera, CF (R&D Systems Cat#1129-ER) (human) (UniProt P04626); test: MSD Multispot ECL, antigen spotted on plate, Fab in solution; blank spot of the row 373
[6] = biological target: rHuman IGF-1 sR, (IGF-1 sR), CF (R&D Systems Cat#391-GR) (human) (UniProt P08069); test: as above
[7] = biological target: rHuman Erythropoietin R/Fc Chimera, CF (R&D Systems Cat#963-ER) (human) (UniProt P19235); test: ECL multispot (MSD) binding assay, antigen spotted on plate; further: test concentration or dose not given here
[8] = biological target: rHuman ErbB2/Fc Chimera, CF (R&D Systems Cat#1129-ER) (human) (UniProt P04626); test: MSD Multispot ECL, antigen spotted on plate, Fab in solution; blank spot of the row 316
[9] = biological target: rHuman IGF-1 sR, (IGF-1 sR), CF (R&D Systems Cat#391-GR) (human) (UniProt P08069); test: as above
[10] = biological target: rHuman ErbB2/Fc Chimera, CF (R&D Systems Cat#1129-ER) (human) (UniProt P04626); test: MSD Multispot ECL, antigen spotted on plate, Fab in solution; blank spot of the row 337
[11] = biological target: rHuman IGF-1 sR, (IGF-1 sR), CF (R&D Systems Cat#391-GR) (human) (UniProt P08069); test: as above
[12] = biological target: rHuman Erythropoietin R/Fc Chimera (human) (UniProt P19235); test: ECL multispot (MSD) binding assay; antigen spotted on plate, Fab in solution; further: test concentration or dose not given here
[13] = biological target: rHuman EGF R/Fc Chimera, CF (R&D Systems Cat#344-ER) (human) (UniProt P00533); test: ECL Multispot (MSD), antigen spotted, Fab 0.50 (column head 'Fab [µM]'); blank 206
[14] = biological target: rHuman Erythropoietin R/Fc Chimera, CF (R&D Systems Cat#963-ER) (human) (UniProt P19235); test: as above
[15] = biological target: rHuman EGF R/Fc Chimera, CF (R&D Systems Cat#344-ER) (human) (UniProt P00533); test: ECL Multispot (MSD), antigen spotted, Fab 5.00 (column head 'Fab [µM]'); blank 268
[16] = biological target: rHuman Erythropoietin R/Fc Chimera, CF (R&D Systems Cat#963-ER) (human) (UniProt P19235); test: as above
[17] = biological target: rHuman EGF R/Fc Chimera, CF (R&D Systems Cat#344-ER) (human) (UniProt P00533); test: ECL Multispot (MSD), antigen spotted, Fab 50.00 (column head 'Fab [µM]'); blank 223
[18] = biological target: rHuman Erythropoietin R/Fc Chimera, CF (R&D Systems Cat#963-ER) (human) (UniProt P19235); test: as above
[19] = biological target: rHuman EGF R/Fc Chimera, CF (R&D Systems Cat#344-ER) (human) (UniProt P00533); test: ECL Multispot (MSD), antigen spotted, Fab 500.00 (column head 'Fab [µM]'); blank 495
[20] = biological target: rHuman Erythropoietin R/Fc Chimera, CF (R&D Systems Cat#963-ER) (human) (UniProt P19235); test: as above
[21] = biological target: rHuman Erythropoietin R/Fc Chimera, CF (R&D Systems Cat#963-ER) (human) (UniProt P19235); test: ECL Multispot (MSD), antigen spotted; Fab 5 (µM); blank 102; first of duplicates
[22] = biological target: rHuman Erythropoietin R/Fc Chimera, CF (R&D Systems Cat#963-ER) (human) (UniProt P19235); test: ECL Multispot (MSD), antigen spotted; Fab 50 (µM); blank 332; first of duplicates
[23] = biological target: rHuman Erythropoietin R/Fc Chimera, CF (R&D Systems Cat#963-ER) (human) (UniProt P19235); test: ECL Multispot (MSD), antigen spotted; Fab 0.50 (µM); blank 95; first of duplicates
[24] = biological target: rHuman Erythropoietin R/Fc Chimera, CF (R&D Systems Cat#963-ER) (human) (UniProt P19235); test: ECL Multispot (MSD), antigen spotted; Fab 500 (µM); blank 570; first of duplicates
[25] = biological target: rHuman Erythropoietin R/Fc Chimera, CF (R&D Systems Cat#963-ER) (human) (UniProt P19235); test: MSD ECL multispot assay, antigen spotted on plate, Fab in solution; blank spot of this row 274; further: test concentration or dose not given here
[26] = biological target: rHuman Erythropoietin R/Fc Chimera, CF (R&D Systems Cat#963-ER) (human) (UniProt P19235); test: MSD ECL multispot assay, antigen spotted on plate, Fab in solution; blank spot of this row 277; further: test concentration or dose not given here
[27] = biological target: rHuman Erythropoietin R/Fc Chimera, CF (R&D Systems Cat#963-ER) (human) (UniProt P19235); test: MSD ECL multispot assay, antigen spotted on plate, Fab in solution; blank spot of this row 282; further: test concentration or dose not given here
[28] = biological target: rHuman CD44/Fc Chimera, CF (R&D Systems Cat#3660-CD) (human) (UniProt P16070); test: MSD Multispot ECL, antigen spotted on plate, Fab in solution; blank spot of the row 297
[29] = biological target: rHuman ErbB2/Fc Chimera, CF (R&D Systems Cat#1129-ER) (human) (UniProt P04626); test: as above
[30] = biological target: rHuman IGF-1 sR, (IGF-1 sR), CF (R&D Systems Cat#391-GR) (human) (UniProt P08069); test: as above
[31] = biological target: rHuman ErbB2/Fc Chimera, CF (R&D Systems Cat#1129-ER) (human) (UniProt P04626); test: MSD Multispot ECL, antigen spotted on plate, Fab in solution; blank spot of the row 351
[32] = biological target: rHuman IGF-1 sR, (IGF-1 sR), CF (R&D Systems Cat#391-GR) (human) (UniProt P08069); test: as above

Substance: Fab VH5-51_IGHD5-18*01>3_IGHJ4*01 G100K/G104T S28A & V3-4_IGLJ1*01
ECL signal [8]: 1070
ECL signal [9]: 924

Substance: Fab VH5-51_IGHD5-18*01>3_IGHJ4*01 G100K/G104T F29A & V3-4_IGLJ1*01
ECL signal [10]: 1040
ECL signal [11]: 945

Substance: Fab VH1-46_IGHD6-6*01_IGHJ1*01 S102A/S103P/S104F/H111F (APFF) & L6_IGKJ1*01
ECL signal [12]: 433
ECL signal [13]: 266
ECL signal [14]: 298
ECL signal [15]: 303
ECL signal [16]: 423
ECL signal [17]: 552
ECL signal [18]: 879
ECL signal [19]: 2900
ECL signal [20]: 4970
ECL signal [21]: 294
ECL signal [22]: 736
ECL signal [23]: 122
ECL signal [24]: 4720
ECL signal [25]: 473
ECL signal [26]: 467
ECL signal [27]: 1060

Substance: Fab VH5-51_IGHD5-18*01>3_IGHJ4*01 G100K/G104T T30A & V3-4_IGLJ1*01
ECL signal [31]: 1070
ECL signal [32]: 968

The remaining lines, values ahead:

ECL signal [1]: 604
Substance: Fab VH1-46_IGHD6-6*01_IGHJ1*01 S102A/S103P/S104F/H111F (APFF) & L6_IGKJ1*01 S31Y

ECL signal [2]: 608
ECL signal [3]: 1150
ECL signal [4]: 923
Substance: Fab VH5-51_IGHD5-18*01>3_IGHJ4*01 G100K/G104T I34A & V3-4_IGLJ1*01

ECL signal [5]: 869
ECL signal [6]: 879
Substance: Fab VH5-51_IGHD5-18*01>3_IGHJ4*01 G100K/G104T G24A & V3-4_IGLJ1*01

ECL signal [7]: 461
Substance: Fab VH1-46_IGHD6-6*01_IGHJ1*01 S102A/S103P/S104F/H111F (APFF) & L6_IGKJ1*01 S31A

ECL signal [28]: 624
ECL signal [29]: 911
ECL signal [30]: 899
Substance: Fab VH5-51_IGHD5-18*01>3_IGHJ4*01 G100K/G104T G35A & V3-4_IGLJ1*01
